In publication doi:10.1101/2020.01.07.896506 (bioRxiv, 2020):

What was measured:
native gel or EMSA = target: the molecule itself; assay: native gel or EMSA
SEC = target: the molecule itself; assay: SEC

B1: recombinant GRXS17 (glutaredoxin GRXS17, Arabidopsis thaliana) (natural protein, UniProt Q9ZPH2 1-488, looked up)
chain: MSGTVKDIVSKAELDNLRQSGAPVVLHFWASWCDASKQMDQVFSHLATDFPRAHFFRVEAEEHPEISEAYSVAAVPYFVFFKDGKTVDTLEGADPSSLANKVGKVAGSSTSAEPAAPASLGLAAGPTILETVKENAKASLQDRAQPVSTADALKSRLEKLTNSHPVMLFMKGIPEEPRCGFSRKVVDILKEVNVDFGSFDILSDNEVREGLKKFSNWPTFPQLYCNGELLGGADIAIAMHESGELKDAFKDLGITTVGSKESQDEAGKGGGVSSGNTGLSETLRARLEGLVNSKPVMLFMKGRPEEPKCGFSGKVVEILNQEKIEFGSFDILLDDEVRQGLKVYSNWSSYPQLYVKGELMGGSDIVLEMQKSGELKKVLTEKGITGEQSLEDRLKALINSSEVMLFMKGSPDEPKCGFSSKVVKALRGENVSFGSFDILTDEEVRQGIKNFSNWPTFPQLYYKGELIGGCDIIMELSESGDLKATLSE
Question: Which “stoichiometry N” value (native gel or EMSA) does the source give for B1 here?
Answer: 2

B2: recombinant GRXS17-C33S/C179S/C309S/C416S (natural protein, Arabidopsis thaliana, UniProt Q9ZPH2 1-488, looked up)
chain: MSGTVKDIVSKAELDNLRQSGAPVVLHFWASWSDASKQMDQVFSHLATDFPRAHFFRVEAEEHPEISEAYSVAAVPYFVFFKDGKTVDTLEGADPSSLANKVGKVAGSSTSAEPAAPASLGLAAGPTILETVKENAKASLQDRAQPVSTADALKSRLEKLTNSHPVMLFMKGIPEEPRSGFSRKVVDILKEVNVDFGSFDILSDNEVREGLKKFSNWPTFPQLYCNGELLGGADIAIAMHESGELKDAFKDLGITTVGSKESQDEAGKGGGVSSGNTGLSETLRARLEGLVNSKPVMLFMKGRPEEPKSGFSGKVVEILNQEKIEFGSFDILLDDEVRQGLKVYSNWSSYPQLYVKGELMGGSDIVLEMQKSGELKKVLTEKGITGEQSLEDRLKALINSSEVMLFMKGSPDEPKSGFSSKVVKALRGENVSFGSFDILTDEEVRQGIKNFSNWPTFPQLYYKGELIGGCDIIMELSESGDLKATLSE
Question: For B2, which “stoichiometry N” value (SEC) is on record?
Answer: 2

B3: recombinant GRXS17-C33S (natural protein, Arabidopsis thaliana, UniProt Q9ZPH2 1-488, looked up)
chain: MSGTVKDIVSKAELDNLRQSGAPVVLHFWASWSDASKQMDQVFSHLATDFPRAHFFRVEAEEHPEISEAYSVAAVPYFVFFKDGKTVDTLEGADPSSLANKVGKVAGSSTSAEPAAPASLGLAAGPTILETVKENAKASLQDRAQPVSTADALKSRLEKLTNSHPVMLFMKGIPEEPRCGFSRKVVDILKEVNVDFGSFDILSDNEVREGLKKFSNWPTFPQLYCNGELLGGADIAIAMHESGELKDAFKDLGITTVGSKESQDEAGKGGGVSSGNTGLSETLRARLEGLVNSKPVMLFMKGRPEEPKCGFSGKVVEILNQEKIEFGSFDILLDDEVRQGLKVYSNWSSYPQLYVKGELMGGSDIVLEMQKSGELKKVLTEKGITGEQSLEDRLKALINSSEVMLFMKGSPDEPKCGFSSKVVKALRGENVSFGSFDILTDEEVRQGIKNFSNWPTFPQLYYKGELIGGCDIIMELSESGDLKATLSE
Question: Does B3 bind (SEC)?
Answer: binds
